Like-named read-outs stand apart in the source and are kept apart here.
Tested on: HIV-1 LTR promoter
Assay: Rapid Suppression Assay (RSA), PMA-induced HIV-1 LTR-driven luciferase in 1G5 cells
Type: cell-based
Settings: RSA; for IC50: PMA 5 ng/ml, read-out: IC50, HIV-1 LTR promoter inhibition
Source text: We applied the cell based Rapid Suppression Assay (RSA) for testing X-DING-CD4-induced inhibition of HIV-1 LTR promoter (Lesner et al., 2004; Lesner et al., 2005). Briefly, 1 G5 cells (obtained through the NIH AIDS Research and Reagent Program, Division of AIDS, NIAID, NIH) that are stably transfected with an inducible luciferase gene driven by HIV-1 LTR (Aguilar-Cordova et al., 1994) were washed in PBS, resuspended in hybridoma medium to concentration of 5×10^6cells/ml. For purpose of generating control titration curves, 100 μl aliquots of 1G5 cells were mixed with 100 μl cell culture medium either supplemented with various amount of rX-DING-CD4^pep (SEQ ID No: 1) or no rX-DING-CD4^pep, and incubated for three hours at 37° C. Subsequently, all cells were induced with phorbol 12-myristate 13-acetate (PMA) at a concentration of 5 ng/ml. Two control tubes containing 1G5 cells without rX-DING-CD4^pep treatment were resuspended in hybridoma medium with or without PMA. Three hours later cells were collected by centrifugation and lysed in the same tubes using Reporter Lysis buffer (Promega). The expression levels of luciferase protein in the lysates were determined according to the manufacturer's protocol. The X-DING-CD4^pep inhibition values were established based on the formula: [(LUC1-LUC0)×100/Z]−100; where LUC1 is the value obtained from cells induced by PMA and treated with a specific dilution of X-DING-CD4^pep; and LUC0 is the basal value obtained from the uninduced and untreated cells; Z is the absolute luciferase induction by PMA calculated as Z=LUCmax-LUCO3 where LUCmax is the value of 100% luciferase expression in PMA induced X-DING-CD4^pep untreated cells.
One aspect of the present invention is related to X-DING-CD4 peptide derivatives. Here we obtained 15 derivatives SED ID NOS: 1-15 by recombination or in vitro synthesis. We tested the biological activity of some these derivatives by rapid suppression assay (RSA). In XD-4M, the third amino acid glycine in the native X-DING-CD4 peptide was substituted with the polar amino acid glutamine. In XD-7, the two amino acids, cysteine and valine, replaced the three amino acids, glycine, serine and aspartic acid, in the native X-DING-CD4 peptide. In XD-12 and XD-12sh, the 69th amino acid glutamic acid in the native X-DING-CD4 peptide was methylated. In XD-9, the 69th amino acid glutamic acid in the native X-DING-CD4 peptide was substituted with the amino acid glutamine. The RSA procedure was similar to that described in Example 2. The inhibitory values are plotted in FIG. 5.
We performed the rapid suppression assay (RSA) which tests directly the inhibition of HIV-1 transcription (similar to the procedure described in Example 2), the MAGI assay which tests the inhibition of HIV-1 replication in a single cycle infection (similar to the procedure described in Example 2), and the HIV-1 infection inhibition assay in human PBLs.

[1] = 1G5 cells, listed as rX-DING-CD4

B1: MADINGGGATLPQPLYQTSGVLTAGFAPYIGVGSGKGKLAFLNNDYSQFGTGTKNVHWAGSDSKLTSTELSTYASTKQAAWGKLIQVPSVATSVAIPFNKAGSNAVDLSVDQLCGVFSGRITTWNQ (protein, listed as Homo sapiens)
chain: MADINGGGATLPQPLYQTSGVLTAGFAPYIGVGSGKGKLAFLNNDYSQFGTGTKNVHWAGSDSKLTSTELSTYASTKQAAWGKLIQVPSVATSVAIPFNKAGSNAVDLSVDQLCGVFSGRITTWNQ
  concentration achieving inhibition of 90% HIV-1 LTR transcription: 115.1 nM
1G5 cells
  IC95, HIV-1 LTR promoter inhibition, mass concentration: 1.52 µg/mL
  IC95, inhibitory dose blocking 95% transcription events: about 115.1 nM
  IC50: ~8.18 nM
[1]
  IC50: 8.2 nM
  IC95, HIV-1 LTR promoter inhibition, mass concentration: (1.514 μg/ml)
Table 1
  IC50, HIV-1 LTR promoter inhibition, mass concentration: (0.107 ug/ml)
  IC95, HIV-1 LTR promoter inhibition: 116 nM

— patent US20140018288A1, “X-DING-CD4 Peptide” (priority 2012, published 2014)
